Reference: patent US20230332136A1, “IL-17 RECEPTOR MODULATOR SCREENING SYSTEM” (New York University, priority 2022, published 2023)
Blank lines part the entries; values can stand above or below the molecule they belong to.

Experiments:
hIL-17RA/RC = target: T1, hIL-17RA/RC (Homo sapiens, UniProt Q8NAC3+Q96F46); assay: hADIR-17 dmCherry reporter assay (clonal cell line); type: cell-based; details: activator screen, increasing doses (FIG. 12)
T1 construct: expressed in transfected cells; host or cells: MEF cells stably transduced with retroviral constructs (clonal hADIR-17 line)
T1 sequence (Q96F46 33-866): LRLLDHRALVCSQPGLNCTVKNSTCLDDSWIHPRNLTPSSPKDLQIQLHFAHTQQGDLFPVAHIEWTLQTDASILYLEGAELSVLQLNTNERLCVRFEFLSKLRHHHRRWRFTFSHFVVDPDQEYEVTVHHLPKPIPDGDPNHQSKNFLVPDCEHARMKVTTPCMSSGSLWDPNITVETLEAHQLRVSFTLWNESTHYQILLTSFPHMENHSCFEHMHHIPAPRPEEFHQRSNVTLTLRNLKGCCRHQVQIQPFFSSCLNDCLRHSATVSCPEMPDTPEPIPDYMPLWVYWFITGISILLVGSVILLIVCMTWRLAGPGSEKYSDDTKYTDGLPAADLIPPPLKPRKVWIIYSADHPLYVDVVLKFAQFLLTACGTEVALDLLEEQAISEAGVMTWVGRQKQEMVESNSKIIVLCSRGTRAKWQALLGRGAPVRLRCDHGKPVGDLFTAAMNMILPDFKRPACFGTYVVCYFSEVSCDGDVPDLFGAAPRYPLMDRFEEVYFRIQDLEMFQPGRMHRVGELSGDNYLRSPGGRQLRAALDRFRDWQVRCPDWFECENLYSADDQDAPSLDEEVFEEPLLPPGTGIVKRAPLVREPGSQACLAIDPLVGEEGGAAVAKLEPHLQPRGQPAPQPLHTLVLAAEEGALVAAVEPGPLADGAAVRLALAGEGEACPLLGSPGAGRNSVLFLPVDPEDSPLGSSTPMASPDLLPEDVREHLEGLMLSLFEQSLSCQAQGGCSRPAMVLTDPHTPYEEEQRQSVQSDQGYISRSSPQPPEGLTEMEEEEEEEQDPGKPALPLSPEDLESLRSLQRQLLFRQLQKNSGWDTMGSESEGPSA
T1 sequence (Q8NAC3 21-705 isoform Q8NAC3-3 limits assumed): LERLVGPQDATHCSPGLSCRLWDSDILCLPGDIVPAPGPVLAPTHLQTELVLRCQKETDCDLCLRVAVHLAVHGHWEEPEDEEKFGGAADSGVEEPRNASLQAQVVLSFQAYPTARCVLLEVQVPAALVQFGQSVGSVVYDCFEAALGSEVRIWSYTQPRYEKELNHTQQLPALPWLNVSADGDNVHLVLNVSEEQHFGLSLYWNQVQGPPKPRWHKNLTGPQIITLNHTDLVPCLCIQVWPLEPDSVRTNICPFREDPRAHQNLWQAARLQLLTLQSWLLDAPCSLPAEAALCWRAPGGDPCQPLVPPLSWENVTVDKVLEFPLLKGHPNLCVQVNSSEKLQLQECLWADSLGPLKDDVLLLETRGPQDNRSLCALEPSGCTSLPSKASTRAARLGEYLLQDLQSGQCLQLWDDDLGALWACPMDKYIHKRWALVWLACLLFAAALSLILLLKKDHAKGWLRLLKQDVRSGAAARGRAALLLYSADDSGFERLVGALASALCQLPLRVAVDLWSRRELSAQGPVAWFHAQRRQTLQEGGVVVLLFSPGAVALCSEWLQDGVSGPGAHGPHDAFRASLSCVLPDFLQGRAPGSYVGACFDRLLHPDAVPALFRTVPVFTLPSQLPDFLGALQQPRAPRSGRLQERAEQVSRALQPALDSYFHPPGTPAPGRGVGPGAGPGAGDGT
Experimental: FIG. 9 provides a graphical depiction of constructs for use with human IL-17 receptors. Similar retroviral transfer plasmid constructs as mouse, with human cDNA sequences replacing mouse cDNA. Exogenous hIL-17RA is provided for a functional hADIR system. hIL-17RC, RB, RE constructs are added last separately to MEF cells already stably transduced with the other three required components, generating 3 independent cell lines.
(§1) Mouse constructs were produced as depicted in the panels of FIG. 1. Human sequence constructs were produced as in the panels of FIG. 9, where mouse cDNA constructs were replaced by human cDNA constructed. In the mouse ADIR system exogenous IL-17RC was not provided because the cell line (mouse embryonic fibroblasts) have endogenous IL-17RC expression. In the hADIR system, human components used for the hADIR system (hRA, hRC, hRB, hAct1) were expressed from added polynucleotides.
The data reflected in the Figures utilized a reporter system specifically designed for Act1-dependent IL-17 signaling pathways. The reporter system is based at least in part on the principle that the engagement of active cognate ligands, and the interaction between Act1 and IL-17 receptors is required for active signaling of IL-17A/F, IL-17E, and IL-17C. The protein-protein-interaction (PPI) based reporter system is highly specific and easily scalable. The disclosure is illustrated using mouse and human systems. For the data presented in the Figures, the system comprised a three-part reporter system specifically designed for detecting IL-17A/F, IL-17E, and IL-17C signaling. The PPI-based reporter system provides for detecting active signaling, and is specific for each of the IL-17 family cytokines. […] Each of the retroviral vectors can contain a unique selection or fluorescent marker to enable efficient generation and maintenance of stable cell lines (for example, Puromycin resistance for m/hIL-17RC(RB, RE)-TSC-tTA; EBFP for m/hAct1-TEV; Neomycin resistance and mVenus fluorescence for TRE-dmCherry-PEST, and Thy1.1 for m/hRA).

IL-17RA/RC = target: T2, IL-17RA/RC (Mus musculus, UniProt Q60943+Q8K4C2); assay: mADIR-17 dmCherry reporter assay in MEF cells (flow cytometry); type: cell-based; details: for dmCherry signal produced: after 24 hrs (FIG. 7)
T2 construct: Full length IL-17RC in the purified ADIR system; expressed in transfected cells; host or cells: mouse embryonic fibroblasts (MEF), retrovirally transduced
T2 sequence (Q60943 32-864): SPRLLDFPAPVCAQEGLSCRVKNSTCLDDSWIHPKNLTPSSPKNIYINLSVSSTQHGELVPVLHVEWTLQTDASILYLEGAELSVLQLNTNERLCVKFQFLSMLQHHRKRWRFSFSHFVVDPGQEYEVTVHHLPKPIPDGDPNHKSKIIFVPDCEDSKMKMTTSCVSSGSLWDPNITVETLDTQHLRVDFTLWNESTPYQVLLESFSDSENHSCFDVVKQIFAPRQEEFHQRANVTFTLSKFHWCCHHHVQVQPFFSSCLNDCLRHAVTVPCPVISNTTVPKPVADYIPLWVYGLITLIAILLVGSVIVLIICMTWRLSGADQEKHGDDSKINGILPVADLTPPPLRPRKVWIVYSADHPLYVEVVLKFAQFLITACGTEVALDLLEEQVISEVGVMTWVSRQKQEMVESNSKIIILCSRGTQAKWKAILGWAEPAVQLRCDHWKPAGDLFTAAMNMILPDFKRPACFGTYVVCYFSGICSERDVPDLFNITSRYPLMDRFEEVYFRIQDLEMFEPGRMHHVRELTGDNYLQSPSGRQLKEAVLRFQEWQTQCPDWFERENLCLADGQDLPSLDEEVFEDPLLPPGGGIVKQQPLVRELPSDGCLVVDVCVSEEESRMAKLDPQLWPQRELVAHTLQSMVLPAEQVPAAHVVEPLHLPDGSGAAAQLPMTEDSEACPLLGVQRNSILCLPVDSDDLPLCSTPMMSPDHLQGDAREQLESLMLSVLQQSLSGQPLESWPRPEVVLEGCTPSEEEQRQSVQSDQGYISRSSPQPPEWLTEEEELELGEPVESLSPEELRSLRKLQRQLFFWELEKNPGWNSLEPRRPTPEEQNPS
T2 sequence (Q8K4C2 22-698): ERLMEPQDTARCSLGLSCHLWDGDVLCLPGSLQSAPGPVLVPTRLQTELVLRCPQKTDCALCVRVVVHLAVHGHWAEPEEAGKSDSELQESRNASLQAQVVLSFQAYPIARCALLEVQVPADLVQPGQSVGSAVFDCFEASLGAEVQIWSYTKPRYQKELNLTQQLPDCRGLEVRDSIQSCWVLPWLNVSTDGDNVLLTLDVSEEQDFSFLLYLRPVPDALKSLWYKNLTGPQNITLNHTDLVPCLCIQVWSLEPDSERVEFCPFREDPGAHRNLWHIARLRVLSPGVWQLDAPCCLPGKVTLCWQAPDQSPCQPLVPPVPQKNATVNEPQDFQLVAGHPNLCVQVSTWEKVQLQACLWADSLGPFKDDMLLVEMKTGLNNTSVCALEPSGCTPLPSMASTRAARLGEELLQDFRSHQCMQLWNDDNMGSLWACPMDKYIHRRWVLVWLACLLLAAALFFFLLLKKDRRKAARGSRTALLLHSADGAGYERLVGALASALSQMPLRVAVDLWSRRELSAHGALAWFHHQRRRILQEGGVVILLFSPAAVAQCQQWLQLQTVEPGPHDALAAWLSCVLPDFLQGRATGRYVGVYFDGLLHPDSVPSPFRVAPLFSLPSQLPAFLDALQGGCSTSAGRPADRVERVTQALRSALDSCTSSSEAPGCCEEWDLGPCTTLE
From the text: Unless defined otherwise herein, all technical and scientific terms used in this disclosure have the same meaning as commonly understood by one of ordinary skill in the art to which this disclosure pertains. Where the term “ADIR” is used herein it means ACT1-Dependent IL-17 Receptor Modulator Screening System. The preface “m” means mouse and the prefix “h” means human.
as §1
The data reflected in the Figures utilized a reporter system specifically designed for Act1-dependent IL-17 signaling pathways. The reporter system is based at least in part on the principle that the engagement of active cognate ligands, and the interaction between Act1 and IL-17 receptors is required for active signaling of IL-17A/F, IL-17E, and IL-17C. The protein-protein-interaction (PPI) based reporter system is highly specific and easily scalable. The disclosure is illustrated using mouse and human systems. For the data presented in the Figures, the system comprised a three-part reporter system specifically designed for detecting IL-17A/F, IL-17E, and IL-17C signaling. The PPI-based reporter system provides for detecting active signaling, and is specific for each of the IL-17 family cytokines. The system that is responsive to binding of IL-17A and IL-17F comprises (1) an Act1-tobacco etch virus (TEV) protease fusion protein, which upon active IL-17A/F binding to the IL-17RA/RC receptor heterodimer on a target cell, will be recruited to (2) IL-17RC fused with a TEV cleavage site(TSC)-tTA (a transcriptional transactivator that binds to tetracycline responsive element, or TRE), releasing tTA, which will subsequently translocate into the nucleus where a (3) TRE-dmCherry-PEST (destabilized mCherry) element is integrated into the genome. tTA binds to the TRE to drive dmCherry expression in the target modified cell. The three described components, Act1-TEV, IL-17RC-TSC-tTA, and TRE-dmCherry-PEST, along with IL-17RA, can be delivered by retro or lenti-viral vectors or guide-RNA directed nucleases, or recombinase systems, or by homologous recombination, into mouse embryonic fibroblasts (MEF) or other mammalian cell lines, establishing stable reporter cell lines. Using the same principle, IL-17RC-TSC-tTA can be replaced with IL-17RB-TSC-tTA in the described system to provide for IL-17E (IL-25) binding, and with IL-17RE-TSC-tTA for detecting IL-17C binding. A parallel approach involves attaching the fusion protein of —TSC-tTA to the RA component and three independent system cell lines generated by supplementing RC/RB/RE, Act1-TEV, and TRE-dmCherry reporter components. Each of the retroviral vectors can contain a unique selection or fluorescent marker to enable efficient generation and maintenance of stable cell lines (for example, Puromycin resistance for m/hIL-17RC(RB, RE)-TSC-tTA; EBFP for m/hAct1-TEV; Neomycin resistance and mVenus fluorescence for TRE-dmCherry-PEST, and Thy1.1 for m/hRA).

B1: IL-25: IL-25 (IL17E), noncognate ligand for the mADIR-17 system; binds IL-17RA/RB (protein, UniProt Q8VHH8 17-169, looked up)
Interleukin-25: VSLRIQEGCSHLPSCCPSKEQEPPEEWLKWSSASVSPPEPLSHTHHAESCRASKDGPLNSRAISPWSYELDRDLNRVPQDLYHARCLCPHCVSLQTGSHMDPLGNSVPLYHNQTVFYRRPCHGEEGTHRRYCLERRLYRVSLACVCVRPRVMA
- responsiveness of mADIR-17 cells (dmCherry signal) to ligand (IL-17RA/RC; noncognate ligand, any doses, after 24 hrs, listed as mIL-17E): not responsive

B3: IL-17F: mouse IL-17 family cytokine, cognate ligand of IL-17RA/RC (protein, UniProt Q7TNI7 29-161, looked up)
Interleukin-17F: RKNPKAGVPALQKAGNCPPLEDNTVRVDIRIFNQNQGISVPREFQNRSSSPWDYNITRDPHRFPSEIAEAQCRHSGCINAQGQEDSTMNSVAIQQEILVLRREPQGCSNSFRLEKMLLKVGCTCVKPIVHQAA
- dmCherry signal produced (IL-17RA/RC; 0.4 ng/ml): 0.48%
- dmCherry signal produced (IL-17RA/RC; 2 ng/ml): 0.81%
- dmCherry signal produced (IL-17RA/RC; 10 ng/ml): 3.32%
- dmCherry signal produced (IL-17RA/RC; 50 ng/ml): 13.8%

Next, values leading:

- dmCherry signal response of hADIR-17 clone to ligand (hIL-17RA/RC): dose-dependent response
Molecule: hIL-17A: human IL-17A cytokine, cognate ligand in the hADIR-17 system

- dmCherry signal response of hADIR-17 clone to ligand (hIL-17RA/RC): dose-dependent response
Molecule: hIL-17F: human IL-17F cytokine, cognate ligand in the hADIR-17 system

- dmCherry signal response of hADIR-17 clone to ligand (hIL-17RA/RC): does not respond
B2: hIL-25: human IL-25, non-cognate ligand for hADIR-17; cognate ligand of the hADIR-25 system (protein, UniProt Q9H293 33-177, looked up)
Interleukin-25: YSHWPSCCPSKGQDTSEELLRWSTVPVPPLEPARPNRHPESCRASEDGPLNSRAISPWRYELDRDLNRLPQDLYHARCLCPHCVSLQTGSHMDPRGNSELLYHNQTVFYRRPCHGEKGTHKGYCLERRLYRVSLACVCVRPRVMG
